# From paper PMC5849714, “Direct coupling of detergent purified human mGlu5 receptor to the heterotrimeric G proteins Gq and Gs” (Scientific Reports, 2018)
# Experiments:
# [1] = target: mGlu5-Δ856 (construct for large-scale purification, devoid of eGFP) (human) (UniProt P41594)
# [2] = target: mGlu5-Δ856 (construct for large-scale purification, devoid of eGFP) (human) (UniProt P41594); test: SEC; purified receptor on Superose 6 increase in MNG3/CHS
# Gαqβ1γ2, sequence (P50148 whole entry): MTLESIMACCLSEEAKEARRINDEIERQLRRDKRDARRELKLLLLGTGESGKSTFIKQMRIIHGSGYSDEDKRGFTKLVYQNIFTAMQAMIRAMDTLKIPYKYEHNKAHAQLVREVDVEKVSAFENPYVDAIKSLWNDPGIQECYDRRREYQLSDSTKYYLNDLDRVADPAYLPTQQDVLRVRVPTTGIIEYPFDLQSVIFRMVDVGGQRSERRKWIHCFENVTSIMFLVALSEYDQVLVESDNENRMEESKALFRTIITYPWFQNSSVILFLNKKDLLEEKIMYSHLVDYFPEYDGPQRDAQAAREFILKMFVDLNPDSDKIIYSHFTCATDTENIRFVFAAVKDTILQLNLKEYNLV
# Gαqβ1γ2, sequence (P62873 whole entry): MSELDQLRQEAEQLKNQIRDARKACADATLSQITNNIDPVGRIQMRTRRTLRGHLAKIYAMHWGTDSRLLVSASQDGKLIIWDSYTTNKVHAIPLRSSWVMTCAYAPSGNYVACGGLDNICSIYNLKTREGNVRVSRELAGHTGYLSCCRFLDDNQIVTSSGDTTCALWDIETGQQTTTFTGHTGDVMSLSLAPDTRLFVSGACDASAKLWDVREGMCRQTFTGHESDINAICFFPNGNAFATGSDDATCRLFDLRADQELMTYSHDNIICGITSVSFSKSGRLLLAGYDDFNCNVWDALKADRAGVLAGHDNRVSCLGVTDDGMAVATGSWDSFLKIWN
# Gαqβ1γ2, sequence (P59768 whole entry): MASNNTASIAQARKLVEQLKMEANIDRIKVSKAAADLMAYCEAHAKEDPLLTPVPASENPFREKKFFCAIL
Substance,"Bodipy-FL GTPγS fluorescence, purified receptor in detergent, glutamate and VU0424465 together: increase of the maximum response [1] [%]",stoichiometry N [2]
Gαqβ1γ2 (from UniProt P50148 1-359; P62873 1-340; P59768 1-71) (complex),30,
"mGlu5-Δ856 (construct for large-scale purification, devoid of eGFP) (from UniProt P41594-2 21-856) (receptor)",,2
